# Results reported in the Human Domainome abundance scans (Beltran et al. 2025).
# ± gives the uncertainty stated by the source.
# B1: CD2-associated protein, residues 1 to 59; numbered along this chain, Q9Y5K6 (parent)
# chain: MVDYIVEYDYDAVHDDELTIRVGEIIRNVKKLQEEGWLEGELNGRRGMFPDNFVKEIKR
# B2: Pyruvate dehydrogenase protein X component, mitochondrial, residues 181 to 227; numbered along this chain, O00330 (parent)
# chain: RFRLSPAARNILEKHSLDASQGTATGPRGIFTKEDALKLVQLKQTGK
# Variants of: B1
# Assay: abundance fitness (aPCA) (normalised: wild type 0, dead -1); higher = more abundant; growth selection in yeast, the domain comes from the species named
# Conditions: Homo sapiens
row,Variant,abundance fitness
1,R46I,-0.243 ± 0.37
2,L32V,0.074 ± 0.24
3,L32G,-0.013 ± 0.079
4,T19R,-0.66 ± 0.16
5,F49Q,-0.857 ± 0.43
6,F49L,-0.251 ± 0.09
7,F49A,-0.539 ± 0.26
8,G23P,-1.04 ± 0.33
9,R59Q,0.024 ± 0.25
10,D15F,-0.325 ± 0.09
11,E39A,-0.146 ± 0.12
12,M1S,0.072 ± 0.14
13,E34M,0.05 ± 0.099
14,E34L,0.004 ± 0.072
15,N52E,-0.263 ± 0.34
16,I25C,-0.392 ± 0.23
17,K30L,-0.191 ± 0.09
18,E41W,-0.31 ± 0.14
19,G36N,-0.174 ± 0.12
20,A12Q,-0.349 ± 0.12
21,V29L,-0.62 ± 0.22
22,V29S,-0.448 ± 0.2

row,Variant,abundance fitness
1,E35W,-0.399 ± 0.11
2,Y10E,-0.787 ± 0.19
3,N43K,-0.149 ± 0.12
4,V6S,-0.363 ± 0.054
5,V6A,-0.08 ± 0.063
6,V13P,-0.726 ± 0.19
7,V13R,-0.149 ± 0.077
8,K58M,-0.138 ± 0.25
9,M48P,-0.524 ± 0.22
10,D3H,-0.188 ± 0.1
11,E7T,0.028 ± 0.074
12,E7H,-0.581 ± 0.35
13,V2D,-0.119 ± 0.22
14,D51N,0.191 ± 0.3
15,P50F,-0.589 ± 0.16
16,E17V,-0.747 ± 0.23
17,E17L,-0.882 ± 0.25
18,Y4W,-0.166 ± 0.098
19,Y4M,-0.086 ± 0.13
20,W37R,-0.298 ± 0.14
21,V54G,-0.075 ± 0.091
22,K55Q,0.032 ± 0.11

# Variants of: B2
# Assay: as above
# Conditions: Homo sapiens
row,Variant,abundance fitness
1,K33P,-0.607 ± 0.15
2,K33C,-0.417 ± 0.059
3,K33Y,-0.401 ± 0.14
4,K33A,-0.113 ± 0.057
5,K33I,0.047 ± 0.16
6,K33G,-0.331 ± 0.05
7,K33L,-0.379 ± 0.062
8,E13M,-0.661 ± 0.13
9,E13R,-0.242 ± 0.043
10,E13K,-0.097 ± 0.094
11,E13I,-0.224 ± 0.096
12,E13A,-0.255 ± 0.063
13,E13V,-0.391 ± 0.046
14,E13T,-0.428 ± 0.055
15,T23G,-0.326 ± 0.045
16,T23M,-0.231 ± 0.054
17,T23H,-0.326 ± 0.087
18,T23W,-0.424 ± 0.073
19,T23L,-0.258 ± 0.06
20,T23K,-0.062 ± 0.075
21,T23P,-0.442 ± 0.064
22,R1S,0.145 ± 0.095
23,R1E,-0.206 ± 0.14
24,R1V,-0.685 ± 0.054
25,R1A,0.02 ± 0.23

row,Variant,abundance fitness
1,Q41Y,-0.639 ± 0.17
2,I11S,-0.436 ± 0.057
3,I11A,-0.356 ± 0.057
4,I11H,-0.369 ± 0.11
5,I11T,-0.532 ± 0.08
6,I11N,-0.194 ± 0.1
7,I11C,-0.485 ± 0.07
8,I11E,-0.528 ± 0.075
9,T45L,-0.146 ± 0.09
10,T45P,-0.333 ± 0.11
11,T45K,-0.379 ± 0.11
12,T45I,-0.428 ± 0.15
13,T45Q,-0.209 ± 0.14
14,L42T,-0.198 ± 0.076
15,L42K,0.221 ± 0.12
16,L42E,0.096 ± 0.079
17,L42I,-0.291 ± 0.17
18,L42V,-0.001 ± 0.045
19,L42W,-0.251 ± 0.068
20,L42H,-0.618 ± 0.28
21,L42D,0.085 ± 0.051
22,L42F,-0.535 ± 0.14
23,E34A,-0.155 ± 0.065
24,E34S,-0.178 ± 0.056
25,E34R,-0.329 ± 0.05

row,Variant,abundance fitness
1,E34L,-0.443 ± 0.061
2,E34F,-0.388 ± 0.1
3,E34Q,0.054 ± 0.08
4,A24K,-0.638 ± 0.13
5,A24P,-0.191 ± 0.069
6,A24D,-0.661 ± 0.079
7,A24T,-0.423 ± 0.051
8,A24V,-0.476 ± 0.055
9,A24N,-0.31 ± 0.07
10,K38G,-0.354 ± 0.089
11,K38I,-0.604 ± 0.079
12,K38R,0.042 ± 0.076
13,K38F,-0.781 ± 0.11
14,K38V,-0.391 ± 0.089
15,L37T,-0.072 ± 0.099
16,L37R,-0.377 ± 0.07
17,L37A,-0.55 ± 0.1
18,L37I,-0.369 ± 0.12
19,L37S,-0.286 ± 0.078
20,L37K,-0.088 ± 0.08
21,L37D,0.035 ± 0.14
22,F31G,-0.195 ± 0.072
23,F31A,-0.451 ± 0.087
24,F31P,-0.206 ± 0.076
25,F31C,-0.236 ± 0.067

row,Variant,abundance fitness
1,F31H,-0.222 ± 0.11
2,F31S,-0.306 ± 0.068
3,Q21R,-0.44 ± 0.058
4,Q21N,-0.516 ± 0.056
5,Q21F,-0.493 ± 0.085
6,Q21G,-0.101 ± 0.048
7,Q21V,-0.31 ± 0.049
8,Q21L,-0.051 ± 0.046
9,Q21W,-0.223 ± 0.056
10,L17V,-0.331 ± 0.053
11,L17A,-0.506 ± 0.056
12,L17N,-0.687 ± 0.066
13,L17F,-0.635 ± 0.085
14,L17Y,-0.691 ± 0.17
15,L17E,-0.33 ± 0.068
16,L17H,-0.308 ± 0.12
17,L17T,-0.31 ± 0.092
18,L17K,-0.509 ± 0.076
19,A19M,-0.074 ± 0.049
20,A19D,-0.355 ± 0.12
21,G22L,-0.475 ± 0.047
22,G22N,-0.648 ± 0.078
23,G22A,-0.337 ± 0.067
24,G22F,-0.679 ± 0.053
25,G22Y,-0.623 ± 0.08

row,Variant,abundance fitness
1,G22K,-0.633 ± 0.099
2,G22P,-0.64 ± 0.071
3,G22H,-0.524 ± 0.11
4,G22I,-0.446 ± 0.058
5,G22D,-0.552 ± 0.097
6,T25A,-0.566 ± 0.072
7,T25H,-0.58 ± 0.15
8,T25V,-0.476 ± 0.077
9,T25L,-0.519 ± 0.048
10,Q44H,-0.152 ± 0.095
11,Q44S,-0.068 ± 0.082
12,Q44I,0.039 ± 0.093
13,Q44R,-0.14 ± 0.061
14,Q44E,0.038 ± 0.076
15,Q44K,0.114 ± 0.094
16,Q44Y,-0.028 ± 0.11
17,V40R,-0.439 ± 0.067
18,V40Y,-0.295 ± 0.087
19,L12T,-0.181 ± 0.057
20,L12Y,-1.16 ± 0.3
21,L12F,-0.584 ± 0.13
22,L12I,-0.121 ± 0.062
23,L12P,-0.073 ± 0.062
